Data reported in patent US8716556.

Molecular target: MYB96 (Arabidopsis thaliana) (UniProt Q24JK1)
Test: cell_activity
Conditions: GUS reporter activation in Arabidopsis protoplasts

Sequence of UniProt Q24JK1 (Q24JK1 whole entry): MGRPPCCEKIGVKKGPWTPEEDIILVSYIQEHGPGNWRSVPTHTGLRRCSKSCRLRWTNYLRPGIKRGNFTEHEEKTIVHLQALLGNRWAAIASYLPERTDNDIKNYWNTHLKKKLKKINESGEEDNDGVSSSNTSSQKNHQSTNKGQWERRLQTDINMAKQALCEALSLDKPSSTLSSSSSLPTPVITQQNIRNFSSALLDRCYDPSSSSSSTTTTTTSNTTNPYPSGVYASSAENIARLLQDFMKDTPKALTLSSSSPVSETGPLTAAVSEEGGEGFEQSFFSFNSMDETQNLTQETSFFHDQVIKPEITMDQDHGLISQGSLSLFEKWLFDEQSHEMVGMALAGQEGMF

KCS1-BS in pKCS-P reporter
activity: > 6 fold
